Square brackets hold non-standard residues; d marks the D form. Ends that are not written are not given here.
Key:
(L)-SH3 = molecular target: T1, (L)-SH3 (Gallus gallus, UniProt P00523); experiment: Retention of bacterially expressed (L)-SH3 on peptide affinity column; assay type: binding; conditions: residues 81-140 of chicken c-Src
T1 construct: E. coli BL21(DE3) pLysS, pMMHb TrpLE-His9 fusion, cleaved with CNBr
Protocol: The L- and D-enantiomers of the chicken c-SRC domain were prepared by bacterial expression and chemical synthesis, respectively. The biotinylated, synthetic, 60-amino acid D-SH3 domain was refolded and purified by affinity chromatography, with a D-amino acid version of a known peptide ligand for the SH3 domain (Yu, H., et al., Cell, 76:933 (1994)).
The all D amino acid SH3 domain, sequence […] S-COOH-terminus (SEQ ID No: 1), residues 81-140 of chicken c-SRC, was synthesized on HMP resin (ABI/Perkin Elmer) with an ABI 431A peptide synthesizer and ABI fastmoc cycles (Fmoc chemistry with HBTU activation and capping with acetic anhydride). Protected D-amino acids were obtained from Bachem California., Bachem Bioscience, Advanced Chemtech, and Novabiochem. For D-Ile and D-Thr, the side chain enantiomers were used, in which the chirality of the side chain is also inverted relative to naturally occurring L-Thr and L-Ile. After completion of the synthesis, the NH2 -terminus of the peptide was modified with NHS-LC-biotin II (Pierce). After cleavage, the peptide was lyophilized, dissolved in 6 M guanidine HCl, pH 6.0, and dialyzed against 100 mM NaHPO4 and 100 mM NaCl, pH 6.0, with the use of dialysis tubing with a molecular cutoff of 3,500 daltons (D) (Spectra/Por). […]

[1] = molecular target: T2, lectin concanavalin A (Con A) (Canavalia ensiformis, UniProt P02866); experiment: Con A screen of the phage library; assay type: binding; conditions: after 3 rounds
T2 construct: mature circularly permuted chain
Protocol: The library was made by ligation of a random PCR product into Sfi I-cut Fuse 5 vector. After ligation the reaction mixture was extracted with phenol and chloroform, ethanol-precipitated and taken up in 10 mM Tris/1 m mM EDTA (pH 8.0). The ligation product was subsequently transferred into electrocompetent MC1061 cells (Biorad) using a Bio-Rad E. coli pulser and 0.1 cm cuvettes. After non-restrictive growth for 1 hr aliquots of transformed cells were plated on tetracycline-containing plates to determine the efficiency of transformation, yielding an initial library of 3.6×108 transformants. The transformation mixture was subsequently diluted to a volume of 400 ml LB and 20 μg/ml tetracycline, and grown for an additional 14 hrs. A phage stock was prepared by two successive polyethylene glycol (PEG) precipitations of the culture supernatant as described. The phage stock was finally resuspended in tris buffered saline/NaN3 and titered by infection of K91-kan cells (A21), yielding a total of 2.8×10^11 transforming units. The randomness of the inserts was confirmed by sequencing of individual clones. 4×10^10 transforming units were subsequently used to infect K91-kan cells to generate an amplified library. After 18 hrs phage were purified by three repetitive PEG precipitations yielding 10 ml of the amplified phage library (1.2-10^12 transforming units/ml) in TBS/NaN3. […]

(D)-Src SH3 domain [2] = molecular target: T3, (D)-Src SH3 domain (Gallus gallus, UniProt P00523); experiment: Screening (selection rounds) of the phage library with the (D)-SH3 domain; assay type: binding, chicken; conditions: for Number of Isolates, low stringency: 4 rounds, 16 hrs phage incubation, washes 3', 5', 10' in rounds 2-4; for isolates after four rounds of selection: 29 clones sequenced after four rounds
Text: The all D amino acid SH3 domain, sequence […] S-COOH-terminus (SEQ ID No: 1), residues 81-140 of chicken c-SRC, was synthesized on HMP resin (ABI/Perkin Elmer) with an ABI 431A peptide synthesizer and ABI fastmoc cycles (Fmoc chemistry with HBTU activation and capping with acetic anhydride). Protected D-amino acids were obtained from Bachem California., Bachem Bioscience, Advanced Chemtech, and Novabiochem. For D-Ile and D-Thr, the side chain enantiomers were used, in which the chirality of the side chain is also inverted relative to naturally occurring L-Thr and L-Ile. After completion of the synthesis, the NH2 -terminus of the peptide was modified with NHS-LC-biotin II (Pierce). After cleavage, the peptide was lyophilized, dissolved in 6 M guanidine HCl, pH 6.0, and dialyzed against 100 mM NaHPO4 and 100 mM NaCl, pH 6.0, with the use of dialysis tubing with a molecular cutoff of 3,500 daltons (D) (Spectra/Por). After dialysis the material was spun briefly to remove insoluble debris, and the supernatant was subsequently dialyzed against 5% acetic acid and lyophilized. The peptide was dissolved at a concentration of 3.3 mg/ml in Tris-buffered saline (50 mM Tris, pH 7.5, and 150 mM NaCl) containing 1 mM biotin. The full biotinylated 60 amino acid (D)-SH3 domain length product was refolded and purified by affinity chromatography on an all-(D) version of a known substrate for the Src SH3 domain (D)-[…] (SEQ ID NO:2), Yu, H., et al., Cell, 76:933 (1994)), that was biotinylated and immobilized on a streptavidin-agarose column (Pierce). This peptide is a derivative of an all (L)-peptide shown to bind to the all (L)-SH3 domain (Yu, H., et al., Cell,76:933-945 (1994)), with an NH2 -terminal YGG added to facilitate concentration determination (H. Edelhoch, Biochemistry, 6:1948 (1967)). The L-peptide with the same NH2 -terminal YGG served as a control ligand in the experiments.
Single wells of a flatbottom 96 well high binding E.I.A./R.I.A. plate (Costar) were coated overnight with 10 μg streptavidin (Pierce) in 100 μl 100 mM NaHCO3 at 4° C. After a single wash with water, wells were incubated with 100 μl (10.7 μg) of biotinylated (D)-SH3 for 1 hr. at 20° C., blocked for 2 hrs with 30 mg/ml dialyzed bovine serum albumin (BSA) in 100 mM NaHCO3, and again incubated with 100 μl ([…]) of biotinylated (D)-SH3 for 1 hr. Unliganded streptavidin was blocked for 30 minutes by the addition of 8 μl 5 mM biotin in tris-buffered saline (TBS). Wells were subsequently washed 5 times with phosphate buffered saline (PBS) and 0.1% Tween-20, and incubated overnight with 50 μl of the phage stock in TBS/NaN3 and 50 μl of TBS, 0.1% Tween-20, 1 mg/ml BSA and 0.05% NaN3. Wells were subsequently washed by six additions of 200 μl of TBS, 0.1% Tween-20 and 1 mg/ml BSA with increasing incubation times in the later rounds of the selection procedure. (D)-SH3 bound phage particles were subsequently eluted by the addition of 100 μl D-SH3 ligand peptide (715 μM), sequence D-[…]-amide (SEQ ID No: 2), for 15 minutes at 4° C., at a final concentration of 700 to 1000 μM peptide. Acid elution of phages in this screen gives no detectable preferential binding to D-SH3 coated wells after four rounds of selection. The eluate was subsequently used to infect K91-kan cells. Briefly 100 μl eluate was mixed with 100 μl K91 Terrific Broth cells (prepared as described) an incubated for 20 minutes at room temperature. The mixture was subsequently transferred into an Erlenmeyer flask containing 20 ml LB/0.2 μg/ml tetracycline. After 1 hr incubation while shaking at 37° C., tetracycline was added to a final concentration of 20 μg/ml, appropriate dilutions were plated on tetracycline-containing plates ([…]) to determine the titer of the eluate and the culture was incubated at 37° C. for 12-16 hrs. Phage were isolated from the supernatant by two PEG precipitations and the resulting phage stock was used for titering to determine the yield, and for the subsequent round of selection. […]

(D)-Src SH3 domain [3] = molecular target: T3, (D)-Src SH3 domain; experiment: as above; assay type: binding, chicken; conditions: for Number of Isolates, high stringency: 4 rounds, 2 fold less (D)-Src SH3, 1 hr phage incubation, washes 10' in rounds 2-4
L-SH3 domain [4] = molecular target: T4, L-SH3 domain (Gallus gallus, UniProt P00523); experiment: Screening of the phage library with the L-SH3 domain; assay type: binding, chicken
T4 construct: Residues 81 to 140 of chicken c-SRC were cloned; modified TrpLE leader (Met to Leu, Cys to Ala) (N, cleaved yes); His9 within the C-terminal region of the TrpLE leader (N, cleaved yes); made in house; host or cells: Escherichia coli BL21(DE3) pLysS, plasmid pMMHb-SRC SH3
Protocol: Phage display with the L-SH3 domain was also assessed. When the (L)-SH3 domain is used to screen a phage library (A12) for interacting sequences the poly-proline sequences that have been observed by others Rickles, R. J., et al., EMBO J., 13:5598 (1994); Sparks, A. B., J. Biol. Chem., 39:23853 (1994); Cheadle, C., et al., Ibid, 39:24034 (1994) are isolated.
The sequences of these peptides have features consistent with those described for class I and class II ligands of the SH3 domain ((Yu, H., et al., Cell, 76:933 (1994); Rickles, R. J. et al., EMBO J., 13:5598 (1994; Sparks, A. B., et al., J. Biol. Chem., 269:23853 (1994); Cheadle, C., et al., ibid., p. 24034)).

L-SH3 domain [5] = molecular target: T4, L-SH3 domain; experiment: ELISA and NMR binding check of D-amino acid version of background sequence; parameters: species or system chicken; conditions: as judged by ELISA and NMR studies
[6] = test system: synthetic D-vasopressin (DVP); experiment: Affinity chromatography on D-vasopressin (DVP) resin, in vitro selection of ssDNAs; assay type: binding; conditions: for binding to DVP: affinity chromatography, positive ssDNA
Text: In the first step toward generating an antagonist of the peptide hormone L-vasopressin, an in vitro selection was used to isolate single-stranded DNAs (ssDNAs) that bind synthetic D-vasopressin (DVP). A starting pool of 10^16 different 96-mers was synthesized on a DNA synthesizer. Each pool molecule contained a central region with 60 random-sequence positions that was flanked by two 18-nt defined regions. Molecules within this starting pool that bind DVP were enriched by affinity chromatography. The affinity resin was prepared by coupling biotinylated DVP to streptavidin agarose. The ssDNA pool was radiolabeled, denatured, renatured in a physiological buffer and passed over this resin. […] Eluted pool was amplified by PCR using a negative-strand "primer-terminator", that is, an oligonucleotide bearing a central segment of non-nucleotide material that blocks further extension of the positive strand (Williams, K. P. and Bartel, D. P., Nucleic Acids Res., 23:4220-4221 (1995)). Such PCR results in a substantial size difference between the two product strands, facilitating gel-purification of the positivestrand ssDNA pool. This combination of affinity chromatography and PCR constituted one cycle of selection amplification.
After thirteen iterations of the selectionamplification cycle the pool was cloned. […] Positive ssDNA of each sequence binds DVP and both have potential to form very similar secondary structures.

Molecule: (D)-YGGRELPPLPRF ([dY]GG[dR][dE][dL][dP][dP][dL][dP][dR][dF]; also: biotinylated, site not given here) [all-(D) version of a known substrate for the Src SH3 domain]
- retention of bacterially expressed (L)-SH3 on peptide column ((L)-SH3): not on the (D)-enantiomer

Molecule: AS M W M Y P Y P W G V SA (ASMWMYPYPWGVSA)
- number in parentheses after sequence, Con A screen [1]: 9

Molecule: AS W R Y N Y A F M R Y SA (ASWRYNYAFMRYSA)
- number in parentheses after sequence, Con A screen [1]: 1

Molecule: CAYGFKLGLIKC [clone has alanine to arginine substitution directly amino terminal to the insert]
- Number of Isolates, low stringency ((D)-Src SH3 domain [2]): 1

Molecule: CKRFVWRGQALC
- Number of Isolates, low stringency ((D)-Src SH3 domain [2]): 10
- isolates after four rounds of selection ((D)-Src SH3 domain [2]): 10 isolates
- Number of Isolates, high stringency ((D)-Src SH3 domain [3]): 14

Molecule: CLARSRLPAIPS
- isolates after four rounds of selection with the L-SH3 domain (L-SH3 domain [4]): nine

Molecule: CLMGLRLGLLPC
- Number of Isolates, low stringency ((D)-Src SH3 domain [2]): 4
- sequences revealed after fifth round of selection ((D)-Src SH3 domain [3]; fifth round with neutravidin as a matrix): only sequences of the fdSRC-2-type

Molecule: CLSGLRLGLVPC
- Number of Isolates, low stringency ((D)-Src SH3 domain [2]): 2

Molecule: CSRASWRGLLFC
- Number of Isolates, high stringency ((D)-Src SH3 domain [3]): 1

Molecule: CWYLGYWPGQEC
- Number of Isolates, low stringency ((D)-Src SH3 domain [2]): 12
- isolates after four rounds of selection ((D)-Src SH3 domain [2]): 12 isolates

Molecule: D-amino acid version of this sequence: D-amino acid version of CKRFVWRGQALC (SEQ ID No: 13) ([dC][dK][dR][dF][dV][dW][dR]G[dQ][dA][dL][dC]; cysteine pairing not given here)
- binding to the L-SH3 domain (L-SH3 domain [5]): fails to bind to the L-SH3 domain

Molecule: SRMSPLVPLRNS
- isolates after four rounds of selection with the L-SH3 domain (L-SH3 domain [4]): one

B1: 69.1: D-vasopressin aptamer, deletion derivative of 96.4 (nucleic acid)
chain: TCTAACGTGAATGATAGACGTTACGTGTCTACACTATGTCGAGTTGCTGTGTGCCGATGAACGTGGGAT
modifications: chemistry not given here
- elution from the DVP resin by L-vasopressin ([6]; DVP resin, L-vasopressin): not eluted from the DVP resin by L-vasopressin
- binding to DVP [6]: appears to bind DVP better than does the parent sequence

B2: 96.2: D-vasopressin aptamer, ssDNA 96-mer (nucleic acid)
chain: TCTAACGTGAATGATAGACGGCGAATCCCCAATGCGAAGCAGTGGTTTTGCAGTCGAGTTGCTGTGTGCCGATGAGCGTTAACTTATTCGACCAAA
modifications: DNA, backbone not given here
notes: D-vasopressin aptamer, ssDNA 96-mer
- binding to DVP [6]: binds DVP

B3: 96.4: D-vasopressin aptamer, ssDNA 96-mer (nucleic acid)
chain: TCTAACGTGAATGATAGACGTTACGTGTCTACACTATGTCGAGTTGCTGTGTGCCGATGAACGTGGGATTAGAGCGTGTTAACTTATTCGACCAAA
modifications: DNA, backbone not given here
notes: as for B2
- binding to DVP [6]: binds DVP

From US5780221A, “Identification of enantiomeric ligands” (Whitehead Institute for Biomedical Research, priority 1996, dated 1998)
